This passage reports other: log2 (fold change), binding result and Kd results from article PMC5923425, “Structural analysis of human ARS2 as a platform for co-transcriptional RNA sorting” (Nature Communications, 2018).

The Kd is a measure of binding affinity in units of concentration.

The chains are these.
T1: ARS2^147–871 (human, UniProt Q9BXP5-4 147-871)
T1 construct: human ARS2 (SRRT) isoform-e, 871 residues, residues 147-871, cloned into pETM11; also called hARS2; SRRT; source: E. coli Rosetta 2, purified (Ni-Sepharose, TEV cleavage, HiTrap Q, heparin if necessary, SEC); not shown: His6, N-terminal, cleaved
T1 sequence (looked up): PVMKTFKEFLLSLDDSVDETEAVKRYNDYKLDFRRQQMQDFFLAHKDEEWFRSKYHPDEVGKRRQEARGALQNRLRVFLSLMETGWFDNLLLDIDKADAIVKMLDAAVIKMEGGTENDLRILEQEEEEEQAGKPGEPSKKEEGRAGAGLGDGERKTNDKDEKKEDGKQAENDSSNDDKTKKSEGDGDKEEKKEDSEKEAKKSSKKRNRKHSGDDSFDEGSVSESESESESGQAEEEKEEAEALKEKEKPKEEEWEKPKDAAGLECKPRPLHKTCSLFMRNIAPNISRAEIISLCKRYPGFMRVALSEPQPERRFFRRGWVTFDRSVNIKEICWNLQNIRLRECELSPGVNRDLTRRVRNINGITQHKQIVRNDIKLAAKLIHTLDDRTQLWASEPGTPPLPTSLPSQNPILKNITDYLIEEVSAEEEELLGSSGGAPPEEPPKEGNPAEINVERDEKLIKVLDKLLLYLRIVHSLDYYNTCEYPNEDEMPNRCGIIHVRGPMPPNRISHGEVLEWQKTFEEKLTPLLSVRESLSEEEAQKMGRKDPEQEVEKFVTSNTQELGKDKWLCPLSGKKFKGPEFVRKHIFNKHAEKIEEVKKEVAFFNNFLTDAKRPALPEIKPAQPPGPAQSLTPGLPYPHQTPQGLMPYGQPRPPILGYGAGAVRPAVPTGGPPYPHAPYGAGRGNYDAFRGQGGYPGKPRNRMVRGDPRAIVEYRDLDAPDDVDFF

T2: GST-tagged ARS2^147–871 (human, UniProt Q9BXP5-4 147-871)
T2 construct: human ARS2 (SRRT) isoform-e, residues 147-871; The cloning of the GST fusion is not described; also called GST-ARS2; source: E. coli Rosetta 2 (said of all constructs but full-length NCBP3); held on glutathione sepharose
T2 sequence (looked up): T1 sequence (looked up)

B1: ARS2^147–270+408–763ΔloopB (domain or fragment, human)
chain 1: PVMKTFKEFLLSLDDSVDETEAVKRYNDYKLDFRRQQMQDFFLAHKDEEWFRSKYHPDEVGKRRQEARGALQNRLRVFLSLMETGWFDNLLLDIDKADAIVKMLDAAVIKMEGGTENDLRILEQ
chain 2: GLECKPRPLHKTCSLFMRNIAPNISRAEIISLCKRYPGFMRVALSEPQPERRFFRRGWVTFDRSVNIKEICWNLQNIRLRECELSPGVNRDLTRRVRNINGITQHKQIVRNDIKLAAKLIHTLDDRTQLWASEPGTPPLPTSLPSQNPILKNITDYLIEEGSGSGSERDEKLIKVLDKLLLYLRIVHSLDYYNTCEYPNEDEMPNRCGIIHVRGPMPPNRISHGEVLEWQKTFEEKLTPLLSVRESLSEEEAQKMGRKDPEQEVEKFVTSNTQELGKDKWLCPLSGKKFKGPEFVRKHIFNKHAEKIEEVKKEVAFFNNFLTDAKRPALPE
notes: human ARS2 (SRRT) isoform-e, residues 147-270; human ARS2 (SRRT) isoform-e, from 408 to E567, before the deleted loop B; linker that replaces loop B (568-598); human ARS2 (SRRT) isoform-e, from E599 to 763, after the deleted loop B; the crystallisation methods print ∆566–598GSGSGS; also called ARS2^147–270+408–763Δ568–598 (Δloop B); Human ARS2 147-270+408-763 Δloop B: Δ568–598 E567–GSGSGS–E599; …
B2: ARS2^171–270+408–763 (domain or fragment, human)
chain 1: RYNDYKLDFRRQQMQDFFLAHKDEEWFRSKYHPDEVGKRRQEARGALQNRLRVFLSLMETGWFDNLLLDIDKADAIVKMLDAAVIKMEGGTENDLRILEQ
chain 2: GLECKPRPLHKTCSLFMRNIAPNISRAEIISLCKRYPGFMRVALSEPQPERRFFRRGWVTFDRSVNIKEICWNLQNIRLRECELSPGVNRDLTRRVRNINGITQHKQIVRNDIKLAAKLIHTLDDRTQLWASEPGTPPLPTSLPSQNPILKNITDYLIEEVSAEEEELLGSSGGAPPEEPPKEGNPAEINVERDEKLIKVLDKLLLYLRIVHSLDYYNTCEYPNEDEMPNRCGIIHVRGPMPPNRISHGEVLEWQKTFEEKLTPLLSVRESLSEEEAQKMGRKDPEQEVEKFVTSNTQELGKDKWLCPLSGKKFKGPEFVRKHIFNKHAEKIEEVKKEVAFFNNFLTDAKRPALPE
notes: human ARS2 (SRRT) isoform-e, residues 171-270, cloned into pETM11; human ARS2 (SRRT) isoform-e, residues 408-763, cloned for co-expression into pDUET and pET15b; Two co-expressed fragments of one protein that fold into one core; also called crystallised core; source: E. coli Rosetta 2, two fragments co-expressed, purified; not shown: His6, N-terminal, cleaved
B3: FLASH^921–946 peptide (peptide, UniProt Q9UKL3 921-946, looked up)
peptide: EADTCKNSPLDELEEGEIRSDSETSK
notes: FLASH (FLICE-associated huge protein), residues 921-946, holds FARB (931-943); source: synthetic peptide, bought: GeneScript
B4: full-length NCBP3 (residues 1–620) (natural protein, human, UniProt Q53F19-1 1-620, looked up)
chain: MAAVRGLRVSVKAEAPAGPALGLPSPEAESGVDRGEPEPMEVEEGELEIVPVRRSLKELIPDTSRRYENKAGSFITGIDVTSKEAIEKKEQRAKRFHFRSEVNLAQRNVALDRDMMKKAIPKVRLETIYICGVDEMSTQDVFSYFKEYPPAHIEWLDDTSCNVVWLDEMTATRALINMSSLPAQDKIRSRDASEDKSAEKRKKDKQEDSSDDDEAEEGEVEDENSSDVELDTLSQVEEESLLRNDLRPANKLAKGNRLFMRFATKDDKKELGAARRSQYYMKYGNPNYGGMKGILSNSWKRRYHSRRIQRDVIKKRALIGDDVGLTSYKHRHSGLVNVPEEPIEEEEEEEEEEEEEEEEDQDMDADDRVVVEYHEELPALKQPRERSASRRSSASSSDSDEMDYDLELKMISTPSPKKSMKMTMYADEVESQLKNIRNSMRADSVSSSNIKNRIGNKLPPEKFADVRHLLDEKRQHSRPRPPVSSTKSDIRQRLGKRPHSPEKAFSSNPVVRREPSSDVHSRLGVPRQDSKGLYADTREKKSGNLWTRLGSAPKTKEKNTKKVDHRAPGAEEDDSELQRAWGALIKEKEQSRQKKSRLDNLPSLQIEVSRESSSGSEAES
notes: human NCBP3, full length, residues 1-620, cloned into pFASTBac HTb; also called NCBP3^1–620; source: High Five insect cells, purified; not shown: His6, N-terminal, cleaved

In assay [1] the target is CBP80 (NCBP1) (endogenous) (UniProt Q09161). As to the kind of experiment: EGFP pull down, LC–MS/MS (AP–MS, TMT labelled). As to conditions: HEK 293T/17 cells; three independent affinity purifications per bait, except ARS2 wt in b (one pull down); read off a plot.
The target in assay [2] is PHAX (endogenous) (UniProt Q9H814). As to the kind of experiment: EGFP pull down, LC–MS/MS (AP–MS, TMT labelled). As to conditions: HEK 293T/17 cells; three independent affinity purifications per bait, except ARS2 wt in b (one pull down); read off a plot.
Assay [3] addresses CBP20 (NCBP2) (endogenous) (UniProt P52298). As to the kind of experiment: EGFP pull down, LC–MS/MS (AP–MS, TMT labelled). Particulars: HEK 293T/17 cells; three independent affinity purifications per bait, except ARS2 wt in b (one pull down); read off a plot.
Assay [4] addresses B4. As to the kind of experiment: pull-down; purified recombinant NCBP3 constructs immobilised on m7GTP sepharose, incubated with CBP80 and/or wild type or mutant ARS2; eluted fractions on Coomassie-stained SDS-PAGE. Particulars: both partners purified.
In assay [5] the target is T1, ARS2^147–871. As to the kind of experiment: ITC; MicroCal ITC200, 25 °C, ARS2 constructs with FLASH peptides; high salt (HS): buffer containing 250 mM NaCl; single-site fit; which partner was injected is not told. As to conditions: both partners purified.
Assay [6] has as its target T2, GST-tagged ARS2^147–871. As to the kind of experiment: pull-down; GST-tagged ARS2 147–871 on glutathione sepharose, NCBP3 constructs added, in the absence of the cap analogue. As to conditions: both partners purified.
For assay [7], the target named is T1, ARS2^147–871. As to the kind of experiment: SEC; purified proteins mixed, Superdex 200, 120 mM NaCl, 1 mM TCEP, 20 mM HEPES pH 7.8; in the absence of m7GTP; fractions on SDS-PAGE. As to conditions: both partners purified. (Size exclusion chromatography separates by hydrodynamic size, large species first.)

Sequence of CBP80 (NCBP1) (endogenous) (Q09161 whole entry): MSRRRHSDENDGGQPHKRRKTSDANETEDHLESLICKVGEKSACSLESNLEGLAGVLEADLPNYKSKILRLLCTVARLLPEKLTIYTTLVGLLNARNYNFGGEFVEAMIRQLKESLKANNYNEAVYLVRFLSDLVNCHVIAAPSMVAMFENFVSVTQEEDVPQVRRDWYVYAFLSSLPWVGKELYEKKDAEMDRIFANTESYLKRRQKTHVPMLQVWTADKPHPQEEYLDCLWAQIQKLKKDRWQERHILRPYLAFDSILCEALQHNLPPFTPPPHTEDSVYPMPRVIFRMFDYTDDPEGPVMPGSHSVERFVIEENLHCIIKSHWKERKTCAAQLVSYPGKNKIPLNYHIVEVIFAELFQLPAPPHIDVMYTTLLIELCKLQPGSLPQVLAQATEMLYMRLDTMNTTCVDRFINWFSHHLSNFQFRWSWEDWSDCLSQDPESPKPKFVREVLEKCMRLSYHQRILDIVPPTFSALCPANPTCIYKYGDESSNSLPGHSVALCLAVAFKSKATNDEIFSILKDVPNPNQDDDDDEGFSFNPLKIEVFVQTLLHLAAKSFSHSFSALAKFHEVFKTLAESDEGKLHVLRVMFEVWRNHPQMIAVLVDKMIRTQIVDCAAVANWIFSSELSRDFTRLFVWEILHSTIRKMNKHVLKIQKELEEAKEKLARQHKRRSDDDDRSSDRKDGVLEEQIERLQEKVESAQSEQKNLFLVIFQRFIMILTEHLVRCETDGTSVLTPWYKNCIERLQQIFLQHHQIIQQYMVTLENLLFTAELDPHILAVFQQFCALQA
Sequence of CBP20 (NCBP2) (endogenous) (P52298 whole entry): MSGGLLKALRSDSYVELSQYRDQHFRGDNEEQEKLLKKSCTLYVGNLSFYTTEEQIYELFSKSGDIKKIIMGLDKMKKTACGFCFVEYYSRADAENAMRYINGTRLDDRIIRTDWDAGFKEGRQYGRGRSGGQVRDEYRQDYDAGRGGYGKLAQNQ
Sequence of PHAX (endogenous) (Q9H814 whole entry): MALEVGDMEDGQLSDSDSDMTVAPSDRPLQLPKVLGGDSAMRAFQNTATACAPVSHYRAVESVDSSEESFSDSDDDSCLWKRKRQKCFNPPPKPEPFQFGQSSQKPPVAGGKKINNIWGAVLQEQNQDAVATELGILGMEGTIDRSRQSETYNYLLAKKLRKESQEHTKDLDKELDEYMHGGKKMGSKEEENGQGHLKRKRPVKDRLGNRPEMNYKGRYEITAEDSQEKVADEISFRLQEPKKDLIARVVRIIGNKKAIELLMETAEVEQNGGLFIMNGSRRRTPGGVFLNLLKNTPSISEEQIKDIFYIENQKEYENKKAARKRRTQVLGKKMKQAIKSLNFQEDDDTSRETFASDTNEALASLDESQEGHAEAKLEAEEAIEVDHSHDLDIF

As for “EGFP–ARS2 wt (from UniProt Q9BXP5-4) R854A; R859A; F871A”, the other: log2 (fold change) in assay [1] is -4; in assay [2], -2.6; in assay [3], -3.9. As for B1, the binding result in assay [4] is recorded as “binds”.

With B2, the binding result in assay [4] is reported as “binds”.

On to B3, for which, in assay [5], the Kd came out at 5.5 µM. Consider B4, for which the binding result in assay [6] and in assay [7] was “binds” each time.
